According to the Immune Epitope Database (IEDB):
One block for each sequence: values may come before it.

Experiments:
[1] = target: HLA-B*48:01; assay: IEDB peptide-MHC binding, purified MHC/direct/fluorescence; filed as Kd, often an IC50 or EC50 that approximates it; ≥ and ≤ were set here for values at or beyond the usual limits of such assays
[2] = target: HLA-B*53:01; assay: IEDB peptide-MHC binding, purified MHC/competitive/radioactivity; filed as Kd, often an IC50 or EC50 that approximates it; ≥ and ≤ were set here for values at or beyond the usual limits of such assays
[3] = target: HLA-B*07:02; assay: as above
[4] = target: HLA-B*35:01; assay: as above
[5] = target: HLA-A*24:02; assay: IEDB peptide-MHC binding, purified MHC/competitive/fluorescence; ≥ and ≤ were set here for values at or beyond the usual limits of such assays
[6] = target: HLA-A*29:02; assay: IEDB peptide-MHC binding, purified MHC/competitive/radioactivity; filed as Kd, often an IC50 or EC50 that approximates it; ≥ and ≤ were set here for values at or beyond the usual limits of such assays
[7] = target: HLA-A*30:01; assay: as above
[8] = target: HLA-A*24:02; assay: as above
[9] = target: HLA-A*01:01; assay: as above
[10] = target: HLA-A*30:02; assay: as above
[11] = target: HLA-A*26:01; assay: as above
[12] = target: HLA-A*32:01; assay: as above
[13] = target: HLA-A*23:01; assay: as above
[14] = target: HLA-A*02:01; assay: as above
[15] = target: HLA-A*26:01; assay: IEDB peptide-MHC binding, purified MHC/direct/fluorescence; filed as Kd, often an IC50 or EC50 that approximates it; ≥ and ≤ were set here for values at or beyond the usual limits of such assays
[16] = target: HLA-B*15:01; assay: IEDB peptide-MHC binding, purified MHC/competitive/radioactivity; filed as Kd, often an IC50 or EC50 that approximates it; ≥ and ≤ were set here for values at or beyond the usual limits of such assays
[17] = target: HLA-A*02:06; assay: as above
[18] = target: HLA-A*02:03; assay: as above
[19] = target: HLA-A*02:02; assay: as above
[20] = target: HLA-A*68:02; assay: as above
[21] = target: HLA-A*02:01; assay: IEDB peptide-MHC binding, purified MHC/competitive/fluorescence; ≥ and ≤ were set here for values at or beyond the usual limits of such assays
[22] = target: HLA-A*11:01; assay: IEDB peptide-MHC binding, purified MHC/competitive/radioactivity; filed as Kd, often an IC50 or EC50 that approximates it; ≥ and ≤ were set here for values at or beyond the usual limits of such assays
[23] = target: HLA-A*68:01; assay: as above
[24] = target: HLA-A*03:01; assay: as above
[25] = target: HLA-A*31:01; assay: as above
[26] = target: HLA-A*26:01; assay: IEDB peptide-MHC binding, purified MHC/competitive/fluorescence; filed as Kd, often an IC50 or EC50 that approximates it; ≥ and ≤ were set here for values at or beyond the usual limits of such assays
[27] = target: HLA-A*33:01; assay: IEDB peptide-MHC binding, purified MHC/competitive/radioactivity; filed as Kd, often an IC50 or EC50 that approximates it; ≥ and ≤ were set here for values at or beyond the usual limits of such assays; conditions: source organism: Vaccinia virus WR
[28] = target: HLA-B*51:01; assay: as above; conditions: source organism: Dengue virus 2 Jamaica/1409/1983
[29] = target: HLA-B*15:01; assay: IEDB peptide-MHC binding, purified MHC/competitive/fluorescence; filed as Kd, often an IC50 or EC50 that approximates it; ≥ and ≤ were set here for values at or beyond the usual limits of such assays
[30] = target: HLA-B*18:01; assay: IEDB peptide-MHC binding, purified MHC/direct/fluorescence; filed as Kd, often an IC50 or EC50 that approximates it; ≥ and ≤ were set here for values at or beyond the usual limits of such assays; conditions: source organism: Salmonella enterica
[31] = target: HLA-B*40:01; assay: as above; conditions: source organism: Salmonella enterica
[32] = target: HLA-B*08:01; assay: IEDB peptide-MHC binding, purified MHC/competitive/radioactivity; filed as Kd, often an IC50 or EC50 that approximates it; ≥ and ≤ were set here for values at or beyond the usual limits of such assays; conditions: source organism: Dengue virus 1 Nauru/West Pac/1974
[33] = source organism: Dengue virus 4 Philippines/H241/1956
[34] = source organism: Zaire ebolavirus
[35] = source organism: Mammarenavirus juninense
[36] = source organism: Dengue virus 3 Martinique/1243/1999
[37] = source organism: Vaccinia virus WR
[38] = source organism: Hepacivirus hominis
[39] = source organism: Sudan ebolavirus
[40] = source organism: Dengue virus 3 Sri Lanka/1266/2000
[41] = source organism: Mammarenavirus brazilense
[42] = source organism: Lymphocytic choriomeningitis virus (strain Armstrong)
[43] = source organism: Lassa virus Josiah
[44] = source organism: Dengue virus 2 Jamaica/1409/1983
[45] = source organism: Bacillus anthracis str. A0488
[46] = source organism: Dengue virus 1 Nauru/West Pac/1974
[47] = source organism: Dengue virus 1 Brazil/97-11/1997
[48] = source organism: Trypanosoma cruzi

Sequence: GMNEVTKAL
Kd ([1]; source organism: Giardia lamblia ATCC 50803): 0.359 µM

Sequence: TPEGIIPTLF
Kd [2, 33]: 0.0381 µM
Kd [3, 33]: 0.92 µM
Kd [4, 33]: 0.0935 µM

Sequence: IYTSGKRSN
IC50 [5, 34]: 6.37 µM

Sequence: TPKAKRGTAQ
Kd ([3]; source organism: Dengue virus 1 Singapore/S275/1990): 1.41 µM

Sequence: EDAMPGVLSY
Kd [6, 35]: 11.1 µM
Kd [7, 35]: ≥ 70.4 µM
Kd [8, 35]: ≥ 46.4 µM
Kd [9, 35]: 10.6 µM
Kd [10, 35]: 15.5 µM
Kd [11, 35]: 1.81 µM
Kd [12, 35]: ≥ 69.9 µM
Kd [13, 35]: 16.4 µM

Sequence: LPEYGTLGL
Kd [2, 36]: 0.545 µM
Kd [3, 36]: 0.0401 µM

Sequence: EGVVAFLIL
IC50 [5, 34]: ≥ 80.3 µM

Sequence: MMCYFLTATP
Kd [14, 37]: 0.018 µM

Sequence: ESFDLAGLF
Kd [15, 35]: 0.0013 µM

Sequence: KYYIKNIGN
IC50 ([5]; source organism: Vaccinia virus): ≥ 101 µM

Sequence: VMTKWCAPF
Kd [16, 37]: 0.00186 µM

Sequence: KLSGLGFNAV
Kd [17, 38]: 0.0245 µM
Kd [18, 38]: 0.0028 µM
Kd [14, 38]: 0.0193 µM
Kd [19, 38]: 0.0054 µM
Kd [20, 38]: 6.11 µM

Sequence: APSTGSASSM
Kd [3, 33]: 0.0193 µM
Kd [4, 33]: 0.377 µM

Sequence: LVKRFSTGLF
Kd [16, 33]: 0.256 µM

Sequence: GLITCKAFG
IC50 [5, 37]: ≥ 168 µM
IC50 [21, 37]: 60.5 µM

Sequence: KTFDTEYPK
Kd [22, 33]: 0.126 µM
Kd [23, 33]: 0.104 µM
Kd [7, 33]: 0.08 µM
Kd [24, 33]: 0.0261 µM
Kd [12, 33]: 2.8 µM
Kd [25, 33]: 0.0298 µM

Sequence: SLFIESSICL
Kd [17, 37]: 0.982 µM
Kd [18, 37]: 0.293 µM
Kd [14, 37]: 0.002 µM
Kd [19, 37]: 0.0992 µM

Sequence: GAQHSTTLF
IC50 [5, 39]: 42.1 µM

Sequence: TVAAMGVPPL
Kd [7, 40]: 3.21 µM
Kd [11, 40]: 12.2 µM
Kd [20, 40]: 0.0198 µM

Sequence: NTARLMAGA
Kd ([15]; source organism: Mycobacterium tuberculosis): ≥ 20 µM

Sequence: SIIGILHLI
Kd ([26]; source organism: Influenza A virus (A/Memphis/1/1978(H1N1))): 13 µM

Sequence: TADDITMGY
Kd [6, 41]: 11.3 µM
Kd [7, 41]: ≥ 78.1 µM
Kd [9, 41]: 0.0188 µM
Kd [10, 41]: 9.93 µM
Kd [11, 41]: 4.7 µM
Kd [12, 41]: ≥ 77.8 µM

Sequence: DSEEYHLLY
Kd [6, 42]: 0.289 µM
Kd [7, 42]: 11.3 µM
Kd [9, 42]: 0.00278 µM
Kd [10, 42]: 3.75 µM
Kd [11, 42]: 14.4 µM
Kd [12, 42]: ≥ 77.8 µM

Sequence: LSRNSTHEM
Kd [7, 36]: 0.106 µM
Kd [16, 36]: 0.0397 µM

Sequence: QARFSGLLI
IC50 [5, 34]: 16.7 µM

Sequence: AYQGDYKLF
IC50 [5, 34]: 0.54 µM

Sequence: KTGESSRCY
Kd [6, 42]: 4.38 µM
Kd [7, 42]: 3.52 µM
Kd [9, 42]: 7.28 µM
Kd [10, 42]: 0.101 µM
Kd [11, 42]: ≥ 77.9 µM
Kd [12, 42]: ≥ 77.8 µM

Sequence: ISKIPGGAMY
Kd [9, 36]: ≥ 23.8 µM
Kd [10, 36]: 0.00935 µM
Kd [16, 36]: 0.136 µM

Sequence: LARRPTPKK
Kd [22, 37]: 0.431 µM
Kd [23, 37]: 0.43 µM
Kd ([7]; source organism: Vaccinia virus Copenhagen): 0.0104 µM
Kd [24, 37]: 0.185 µM
Kd [27]: 19.3 µM
Kd [25, 37]: 0.0704 µM

Sequence: QAVNNLVEL
Kd [14, 43]: 4.57 µM

Sequence: FPQSNAPIM
Kd [2, 44]: 0.0018 µM
Kd [3, 44]: 0.0121 µM
Kd [28]: 0.632 µM
Kd [4, 44]: 13.6 µM

Sequence: TTQALQLFL
IC50 [5, 39]: 6.61 µM
IC50 [21, 39]: 10.6 µM

Sequence: FSAWISHRP
IC50 ([5]; source organism: Variola virus): 0.517 µM
IC50 ([21]; source organism: Variola virus): 38.1 µM

Kd ([14]; source organism: Homo sapiens): 12.2 µM
Kd ([20]; source organism: Homo sapiens): ≥ 63.8 µM
Sequence: ALALEEKRRL

Sequence: LYLVDYGLV
IC50 [5, 37]: 0.212 µM
IC50 [21, 37]: ≥ 89.8 µM

Sequence: KLFMALVAF
Kd [12, 44]: 0.0378 µM
Kd [16, 44]: 0.198 µM
Kd [13, 44]: 4.74 µM

Sequence: VLNGAPYSY
Kd [29, 45]: 0.0536 µM

Sequence: HIVYAVPLM
Kd [26, 45]: 0.0082 µM

Sequence: RLLGTFTWT
Kd [17, 43]: 0.137 µM
Kd [18, 43]: 0.104 µM
Kd [14, 43]: 0.0338 µM
Kd [19, 43]: 0.323 µM
Kd [20, 43]: ≥ 5 µM

Sequence: LKVFLPNPA
IC50 ([5]; source organism: Variola virus): 20.3 µM

Sequence: LAMTDTTPF
Kd [2, 33]: 0.0943 µM
Kd [4, 33]: 0.00167 µM
Kd [16, 33]: 0.00392 µM

Sequence: MSIVCIVAA
Kd [16, 37]: 3.07 µM

Sequence: TPTGTVMDII
Kd [3, 36]: 0.219 µM

Sequence: LLFILFYFA
Kd [16, 37]: 0.242 µM

Sequence: MMLKLLTDF
Kd [12, 46]: 0.0567 µM
Kd [16, 46]: 0.0115 µM
Kd [13, 46]: 0.357 µM

Sequence: VLTGGVTLFF
Kd [8, 47]: 1.61 µM
Kd [16, 47]: 0.194 µM

Sequence: YPVWLTKHL
Kd [30]: 2.15 µM
Kd [31]: 2.93 µM

Sequence: RARNRVSTV
Kd [3, 46]: 0.00262 µM
Kd [7, 46]: 0.023 µM
Kd [32]: 0.00901 µM

Sequence: AEFNEDGLL
Kd ([1]; source organism: Listeria monocytogenes serotype 4b str. H7858): ≥ 20 µM

Sequence: LTYFCFVAL
Kd [12, 37]: 0.615 µM
Kd [16, 37]: 0.0285 µM

Sequence: SMRKTDWLPM
Kd [16, 36]: 0.134 µM

Sequence: LQIFSNSVG
Kd [16, 37]: 0.00207 µM

Sequence: GLLPSLLLLG
Kd [17, 48]: 0.127 µM
Kd [18, 48]: 0.137 µM
Kd [14, 48]: 0.12 µM
Kd [19, 48]: 0.261 µM
Kd [20, 48]: 3.75 µM

Sequence: QPATLRKYCI
Kd [3, 44]: 0.66 µM
Kd [28]: ≥ 26.1 µM

Sequence: EIAKYGHSF
Kd [16, 37]: 0.0576 µM

Sequence: KQERGKSLLF
Kd [16, 47]: 0.118 µM

Sequence: MLRVYNNTA
Kd [16, 37]: 0.188 µM

Sequence: FAISYCRAF
Kd [16, 37]: 0.0761 µM

Sequence: LTVVPLMAF
Kd ([29]; source organism: Bacillus cereus G9241): 0.147 µM
